The results in this text go back to PMC8749428.

One test concerns the target PltB-Strep. The experiment in a line: SEC. In general terms: SEC sorts molecules by how far they enter the pores of the column.
Another test concerns the target PltC-His6. The test can be described thus: SEC.
For test [1], the target named is PltA-CdtB-His6 (Salmonella enterica serovar Typhi) (UniProt Q8Z6A7). The experiment in a line: pull-down.
Test [2] addresses PltC (untagged, His tag removed). The experiment in a line: crystal structure.

Substance PltB-Strep (natural protein) returned a stoichiometry N with PltB-Strep of 5. PltC-His6 (natural protein): the stoichiometry N in the test with PltC-His6 is 5.

For the substance “PltC (untagged, His tag removed) (natural protein)”, the fold copurified relative to PltB in test [1] was 2 fold. Besides, the stoichiometry N in test [2] came out at 5.

The term stoichiometry N denotes the number of molecules, sites or subunits per partner or assembly.
